Test results: paper PMC4604347, “Local regulation of the Srs2 helicase by the SUMO-like domain protein Esc2 promotes recombination at sites of stalled replication”
Residue numbers refer to the chain shown, from its start.

T1: Esc2 200-456 (Saccharomyces cerevisiae, UniProt Q06340 200-456)
T1 sequence: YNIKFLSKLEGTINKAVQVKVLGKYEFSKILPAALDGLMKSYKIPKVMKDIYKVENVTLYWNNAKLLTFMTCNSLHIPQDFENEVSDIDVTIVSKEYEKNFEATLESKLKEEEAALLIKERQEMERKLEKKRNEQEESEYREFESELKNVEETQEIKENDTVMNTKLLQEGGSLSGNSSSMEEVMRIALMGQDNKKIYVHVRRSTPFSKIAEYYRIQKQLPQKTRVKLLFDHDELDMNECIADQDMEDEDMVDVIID

T2: Esc2 1-151 (Saccharomyces cerevisiae, UniProt Q06340 1-151)
T2 sequence: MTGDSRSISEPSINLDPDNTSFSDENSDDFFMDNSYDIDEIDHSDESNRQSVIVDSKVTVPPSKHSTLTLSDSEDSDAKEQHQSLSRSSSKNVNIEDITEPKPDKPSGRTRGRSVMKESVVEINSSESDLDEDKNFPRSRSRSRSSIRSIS

T3: Esc2 FF173,174AA (Saccharomyces cerevisiae, UniProt Q06340 1-456, F173A;F174A)
T3 sequence: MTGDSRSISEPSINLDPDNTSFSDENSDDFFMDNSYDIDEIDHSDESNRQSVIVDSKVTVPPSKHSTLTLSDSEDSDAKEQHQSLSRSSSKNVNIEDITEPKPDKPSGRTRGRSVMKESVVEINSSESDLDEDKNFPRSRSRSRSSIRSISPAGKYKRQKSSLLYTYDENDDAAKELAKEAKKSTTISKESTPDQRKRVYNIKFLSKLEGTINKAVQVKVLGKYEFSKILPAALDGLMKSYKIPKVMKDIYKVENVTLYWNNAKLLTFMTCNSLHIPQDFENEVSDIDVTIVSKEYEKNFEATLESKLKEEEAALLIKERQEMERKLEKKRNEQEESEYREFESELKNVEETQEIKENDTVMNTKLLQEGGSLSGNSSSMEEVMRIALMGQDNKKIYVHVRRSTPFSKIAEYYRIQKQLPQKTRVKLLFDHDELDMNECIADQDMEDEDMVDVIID

T4: Esc2 (Saccharomyces cerevisiae, UniProt Q06340 1-456)
T4 sequence: T3 sequence with A173F, A174F

T5: Esc2 1-199 (Saccharomyces cerevisiae, UniProt Q06340 1-199)
T5 sequence: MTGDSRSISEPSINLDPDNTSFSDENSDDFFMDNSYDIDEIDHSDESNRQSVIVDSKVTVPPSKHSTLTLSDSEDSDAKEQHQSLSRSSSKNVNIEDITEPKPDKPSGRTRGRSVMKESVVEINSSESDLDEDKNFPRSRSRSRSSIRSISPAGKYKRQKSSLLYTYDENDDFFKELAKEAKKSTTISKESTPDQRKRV

B1: Fork (oligos 18, 20, 21, 22) (structured_DNA)
DNA 1: AGCTACCATGCCTGCACGAATTAAGCAATTCGTAATCATGGTCATAGCT
DNA 2: CTACAGTTCGTCAGGATTCC
DNA 3: AATTCGTGCAGGCATGGTAGCT
DNA 4: AGCTATGACCATGATTACGAATTGCTTGGAATCCTGACGAACTGTAG
B2: 3'-Flap (oligos 18, 21, 22) (structured_DNA)
DNA 1: B1 DNA 1
DNA 2: AATTCGTGCAGGCATGGTAGCT
DNA 3: B1 DNA 4

How the values were obtained:
Esc2 200-456 = biological target: T1, Esc2 200-456; test: EMSA; up to 1000 nM protein; EMSA, 7 nM fluorescein-labeled DNA, 10 min at 37 C; buffer, salt and pH not given in the material; conditions: protein: recombinant; tags: expressed as GST fusion; tag status in assay not explicit; label: 5'-fluorescein on strand 1; fork 1:3 1:4 2:4; three duplex arms
Esc2 1-151 = biological target: T2, Esc2 1-151; test: EMSA; binding completely lost; up to 1000 nM protein; EMSA, 7 nM fluorescein-labeled DNA, 10 min at 37 C; buffer, salt and pH not given in the material; conditions: protein: recombinant; tags: expressed as GST fusion; tag status in assay not explicit; label: 5'-fluorescein on strand 1; fork 1:3 1:4 2:4; three duplex arms
Esc2 FF173,174AA = biological target: T3, Esc2 FF173,174AA; test: EMSA; still proficient, degree only in figure; EMSA, 7 nM fluorescein-labeled DNA, 10 min at 37 C; buffer, salt and pH not given in the material; conditions: protein: recombinant; tags: expressed as GST fusion; tag status in assay not explicit; label: 5'-fluorescein on strand 1; fork 1:3 1:4 2:4; three duplex arms
Esc2 = biological target: T4, Esc2; test: EMSA; strong preference; 7 nM DNA; EMSA, 7 nM fluorescein-labeled DNA, 10 min at 37 C; buffer, salt and pH not given in the material; conditions: protein: recombinant, tags: GST tag removed, label: 5'-fluorescein on strand 1
Esc2 1-199 = biological target: T5, Esc2 1-199; test: EMSA; highly proficient; 7 nM DNA, 0-1000 nM protein; EMSA, 7 nM fluorescein-labeled DNA, 10 min at 37 C; buffer, salt and pH not given in the material; conditions: protein: recombinant; tags: expressed as GST fusion; tag status in assay not explicit; label: 5'-fluorescein on strand 1; fork 1:3 1:4 2:4; three duplex arms

Binder | binding result (Esc2 200-456) | binding result (Esc2 1-151) | binding result (Esc2 FF173,174AA) | binding result (Esc2; fork 1:3 1:4 2:4, three duplex arms) | binding result (Esc2 1-199) | binding result (Esc2; 3' flap 1:2 1:3, 20 nt ss 3' flap on strand 3)
B1 | no binding | no binding | binds | binds | binds | –
B2 | – | – | – | – | – | binds
